Measured values taken from publication PMC5587573.

Target: T1, Escherichia coli trigger factor (Escherichia coli), P0A850
T1 chain: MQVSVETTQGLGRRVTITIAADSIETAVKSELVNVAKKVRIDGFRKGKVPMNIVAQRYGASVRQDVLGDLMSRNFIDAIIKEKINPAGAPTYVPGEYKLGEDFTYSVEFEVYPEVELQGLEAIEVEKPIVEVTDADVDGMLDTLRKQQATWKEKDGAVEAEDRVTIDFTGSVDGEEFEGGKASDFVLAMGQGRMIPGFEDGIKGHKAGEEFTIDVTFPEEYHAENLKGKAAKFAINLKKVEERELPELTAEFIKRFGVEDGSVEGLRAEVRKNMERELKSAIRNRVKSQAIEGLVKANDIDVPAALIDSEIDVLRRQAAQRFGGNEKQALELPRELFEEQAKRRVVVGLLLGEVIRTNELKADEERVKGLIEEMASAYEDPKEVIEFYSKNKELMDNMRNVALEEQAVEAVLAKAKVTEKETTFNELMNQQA
Assay: SAXS (static); five to eight protein concentrations; 20 mM Tris pH 7.5, 150 mM KCl; 20 °C; BM29 beamline, ESRF; self-association
Details: remark: other sources report otherwise

stoichiometry N: 2
B1: Escherichia coli trigger factor, P0A850 1-432 (natural protein)
chain: T1 chain
